Measurements taken from patent US20150344570A1 (published 2015).

T1: FcγRIIb extracellular domain with C-terminal His tag (human, UniProt P31994 43-217)
T1 construct: extracellular domain; also called FcgRIIb; 2b
T1 sequence (looked up): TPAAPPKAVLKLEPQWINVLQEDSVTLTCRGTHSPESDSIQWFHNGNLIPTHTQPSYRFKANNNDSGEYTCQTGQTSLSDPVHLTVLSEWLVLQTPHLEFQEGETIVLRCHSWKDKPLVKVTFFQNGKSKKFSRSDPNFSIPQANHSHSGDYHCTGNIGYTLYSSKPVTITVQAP

B1: GpH7-A5/GpH7-B3 variant S298_04F/GpL16-k0 (antibody, human IgG1, kappa)
heavy 1: not shown
heavy 2: not shown
light: DIVMTQSPLSLPVTPGEPASISCQASESLVHSNRNTYLHWYLQKPGQSPQLLIYKVSNRFSGVPDRFSGSGSGTDFTLKISRVEAEDVGVYYCSQNTHVPPTFGQGTKVEIERTVAAPSVFIFPPSDEQLKSGTASVVCLLNNFYPREAKVQWKVDNALQSGNSQESVTEQDSKDSTYSLSSTLTLSKADYEKHKVYACEVTHQGLSSPVTKSFNRGEC
notes: Heterodimerized anti-glypican-3 IgG1; alteration only in the GpH7-B3 chain, EU numbering; also called He Ab
B2: GpH7-A5/GpH7-B3 variant Y296_12R/GpL16-k0 (antibody, human IgG1, kappa)
heavy 1: not shown
heavy 2: not shown
light: B1 light
notes: as for B1
B3: GpH7-A5/GpH7-B3 variant Y296_11K/GpL16-k0 (antibody, human IgG1, kappa)
heavy 1: not shown
heavy 2: not shown
light: B1 light
notes: as for B1
B4: GpH7-A5/GpH7-B3 variant S298_07I/GpL16-k0 (antibody, human IgG1, kappa)
heavy 1: not shown
heavy 2: not shown
light: B1 light
notes: as for B1
B5: GpH7-A5/GpH7-B3 variant Y296_19Q/GpL16-k0 (antibody, human IgG1, kappa)
heavy 1: not shown
heavy 2: not shown
light: B1 light
notes: as for B1
B6: GpH7-A5/GpH7-B3 variant S298_05P/GpL16-k0 (antibody, human IgG1, kappa)
heavy 1: not shown
heavy 2: not shown
light: B1 light
notes: as for B1
B7: GpH7-A5/GpH7-B3 variant Y296_05P/GpL16-k0 (antibody, human IgG1, kappa)
heavy 1: not shown
heavy 2: not shown
light: B1 light
notes: as for B1
B8: GpH7-A5/GpH7-B3 variant Y296_03V/GpL16-k0 (antibody, human IgG1, kappa)
heavy 1: not shown
heavy 2: not shown
light: B1 light
notes: as for B1
B9: GpH7-A5/GpH7-B3 variant Y296_02A/GpL16-k0 (antibody, human IgG1, kappa)
heavy 1: not shown
heavy 2: not shown
light: B1 light
notes: as for B1
B10: GpH7-A5/GpH7-B3 variant Y296_01G/GpL16-k0 (antibody, human IgG1, kappa)
heavy 1: not shown
heavy 2: not shown
light: B1 light
notes: as for B1
B11: GpH7-A5/GpH7-B3 variant Y296_07I/GpL16-k0 (antibody, human IgG1, kappa)
heavy 1: not shown
heavy 2: not shown
light: B1 light
notes: as for B1
B12: GpH7-A5/GpH7-B3 variant Y296_13S/GpL16-k0 (antibody, human IgG1, kappa)
heavy 1: not shown
heavy 2: not shown
light: B1 light
notes: as for B1
B13: GpH7-A5/GpH7-B3 variant Y296_08L/GpL16-k0 (antibody, human IgG1, kappa)
heavy 1: not shown
heavy 2: not shown
light: B1 light
notes: as for B1

These binders were tested against T1, FcγRIIb extracellular domain with … (assay: SPR (Biacore), antibody captured via antigen peptide, FcγR as analyte; relative binding).
Description: (§1) The heterodimerized antibodies He Abs in which one of the H chains was introduced with an alteration were assayed for their binding activities to each activating FcγR and inhibitory FcγR according to the method described in Example 4. […] The activating FcγRs in FIGS. 26, 27, 28, and 29 are FcγRIa, FcγRIIa (R), FcγRIIa (H), and FcγRIIIa, respectively.
(§2) Analysis of interaction between objective antibody and the FcγR was carried out using Biacore T100 (GE Healthcare). HBS-EP+ (GE Healthcare) was used as the running buffer, and the measurement temperature was set to 25° C. Chips produced by immobilizing the antigen peptide by the amine coupling method to a Series S Sencor Chip CM5 (GE Healthcare), or alternatively, chips produced by allowing preliminarily biotinylated antigen peptides to interact with and immobilize onto a Series S Sensor Chip SA (certified) (GE Healthcare) were used. Antibodies of interest were captured onto an antigen peptide-immobilized chip, and allowed to interact to each FcγR diluted with running buffer. To regenerate and repeatedly use the chip, the antibodies captured on the chip were washed off by reacting 10 mM glycine-HCl, pH 1.5.

| He/Con_2b | Binder |
| --- | --- |
| 65.4 % of GpH7-A5/GpH7-B3/GpL16-k0 (=100) | B1 |
| 79.5 % of GpH7-A5/GpH7-B3/GpL16-k0 (=100) | B2 |
| 72.8 % of GpH7-A5/GpH7-B3/GpL16-k0 (=100) | B3 |
| 70.6 % of GpH7-A5/GpH7-B3/GpL16-k0 (=100) | B4 |
| 89.3 % of GpH7-A5/GpH7-B3/GpL16-k0 (=100) | B5 |
| 11.9 % of GpH7-A5/GpH7-B3/GpL16-k0 (=100) | B6 |
| 36.6 % of GpH7-A5/GpH7-B3/GpL16-k0 (=100) | B7 |
| 79.3 % of GpH7-A5/GpH7-B3/GpL16-k0 (=100) | B8 |
| 82 % of GpH7-A5/GpH7-B3/GpL16-k0 (=100) | B9 |
| 79.3 % of GpH7-A5/GpH7-B3/GpL16-k0 (=100) | B10 |
| 84.3 % of GpH7-A5/GpH7-B3/GpL16-k0 (=100) | B11 |
| 86.3 % of GpH7-A5/GpH7-B3/GpL16-k0 (=100) | B12 |
| 82.3 % of GpH7-A5/GpH7-B3/GpL16-k0 (=100) | B13 |

Each binder was assayed against T2, FcγRIa extracellular domain with C-terminal His tag (human, UniProt P12314 16-292) in the same assay as above.
T2 construct: extracellular domain; also called FcgRI; 1a
Description: as §1, §2

T2 sequence (P12314 16-292): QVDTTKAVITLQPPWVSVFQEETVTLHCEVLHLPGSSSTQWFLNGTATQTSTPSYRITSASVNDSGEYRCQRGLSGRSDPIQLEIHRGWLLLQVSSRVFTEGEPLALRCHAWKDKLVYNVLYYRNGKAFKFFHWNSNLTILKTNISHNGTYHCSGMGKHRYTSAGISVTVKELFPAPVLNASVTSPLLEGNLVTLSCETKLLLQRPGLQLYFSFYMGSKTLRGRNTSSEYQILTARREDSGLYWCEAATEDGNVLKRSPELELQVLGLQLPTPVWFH

| He/Con_1a | Binder |
| --- | --- |
| 109 % of GpH7-A5/GpH7-B3/GpL16-k0 (=100) | B1 |
| 106 % of GpH7-A5/GpH7-B3/GpL16-k0 (=100) | B2 |
| 105 % of GpH7-A5/GpH7-B3/GpL16-k0 (=100) | B3 |
| 107 % of GpH7-A5/GpH7-B3/GpL16-k0 (=100) | B4 |
| 112 % of GpH7-A5/GpH7-B3/GpL16-k0 (=100) | B5 |
| 91.6 % of GpH7-A5/GpH7-B3/GpL16-k0 (=100) | B6 |
| 95.6 % of GpH7-A5/GpH7-B3/GpL16-k0 (=100) | B7 |
| 104 % of GpH7-A5/GpH7-B3/GpL16-k0 (=100) | B8 |
| 103 % of GpH7-A5/GpH7-B3/GpL16-k0 (=100) | B9 |
| 103 % of GpH7-A5/GpH7-B3/GpL16-k0 (=100) | B10 |
| 104 % of GpH7-A5/GpH7-B3/GpL16-k0 (=100) | B11 |
| 105 % of GpH7-A5/GpH7-B3/GpL16-k0 (=100) | B12 |
| 104 % of GpH7-A5/GpH7-B3/GpL16-k0 (=100) | B13 |

The binders below were run against T2, FcγRIa extracellular domain with … (assay: SPR (Biacore); He/Con_1a divided by He/Con_2b (FcγRIa binding over FcγRIIb binding)).
Description: as §1, §2

| He_1a/2b (Ia/IIb) [ratio] | Binder |
| --- | --- |
| 1.67 | B1 |
| 1.34 | B2 |
| 1.44 | B3 |
| 1.52 | B4 |
| 1.25 | B5 |
| 7.7 | B6 |
| 2.61 | B7 |
| 1.31 | B8 |
| 1.26 | B9 |
| 1.29 | B10 |
| 1.24 | B11 |
| 1.22 | B12 |
| 1.26 | B13 |
